The results in this text go back to the supplement of paper PMC10724198.

Data set [1] deals with Saccharomyces cerevisiae. In words: protein stability index of tFT-peptide fusion (C-terminal peptide) (PSI (0-1 scale)); higher = more stable (slower turnover). The following applies: genetic background: wild type; temperature: 30 C.
The subject of data set [2] is Saccharomyces cerevisiae. The description is as above. How it is done:
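MPS profiling in S. cerevisiae of the tFT-X12 degron library: putative degron peptides plus stable controls, 12 aa, fused to the C-terminus of a sfGFP-mCherry timer. Cells are FACS-sorted into 8 mCherry/sfGFP bins and deep-sequenced. PSI runs from 0 (unstable) to 1 (stable). Backgrounds are wild type, das1Δ and doa10Δ at 30 °C, and wild type, das1Δ, cdc34-1 and cdc53-1 at 37 °C; 2-3 technical replicates each.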

Where [3] appears, read: genetic background: cdc34-1, temperature: 37 C.
[4] abbreviates: genetic background: cdc53-1, temperature: 37 C.
The mark [5] stands for this setting: genetic background: das1 deletion, temperature: 30 C.
Where [6] appears, read: genetic background: das1 deletion, temperature: 37 C.
[7] abbreviates: genetic background: doa10 deletion, temperature: 30 C.
Setting [8] is: genetic background: wild type, temperature: 30 C.
Setting [9] is: genetic background: wild type, temperature: 37 C.

± gives the standard deviation of the averaged measurements.
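Also: PSI is a weighted mean of sequencing reads over stability bins, variants kept only with over 10 reads, mCherry proximal and sfGFP distal, peptide attached via GGGS linker.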

For the sequence KGSKGELGVHVG, the protein stability index with Saccharomyces cerevisiae [1] was determined as 0.671 ± 0.34; in the data set with Saccharomyces cerevisiae [2] (setting [3]), 0.686 ± 0.03; with Saccharomyces cerevisiae [2] (setting [4]), 0.712 ± 0.013; with Saccharomyces cerevisiae [2] (setting [5]) it was 0.63 ± 0.016; with Saccharomyces cerevisiae [2] (setting [6]), 0.728 ± 0.0034; with Saccharomyces cerevisiae [2] (setting [7]), 0.628 ± 0.023. Besides, the protein stability index was found to be 0.634 ± 0.021 in the data set with Saccharomyces cerevisiae [2] (setting [8]) and 0.6889 ± 0.0015 in the data set with Saccharomyces cerevisiae [2] (setting [9]).

KIILMCYTLITL: the protein stability index with Saccharomyces cerevisiae [1] was 0.264 ± 0.015; with Saccharomyces cerevisiae [2] (setting [3]), 0.255 ± 0.033; with Saccharomyces cerevisiae [2] (setting [4]) it was 0.347 ± 0.041; in the data set on Saccharomyces cerevisiae [2] (setting [5]) it was 0.228 ± 0.039; in the data set on Saccharomyces cerevisiae [2] (setting [6]), 0.43 ± 0.018; in the data set on Saccharomyces cerevisiae [2] (setting [7]), 0.2009 ± 0.0016. In addition, the protein stability index is 0.225 ± 0.017 with Saccharomyces cerevisiae [2] (setting [8]) and 0.413 ± 0.04 with Saccharomyces cerevisiae [2] (setting [9]).

For the sequence KIKQIKINNKIN, the protein stability index came out at 0.157 ± 0.0073 with Saccharomyces cerevisiae [1]; 0.43 ± 0.0033 in the data set with Saccharomyces cerevisiae [2] (setting [3]); 0.654 ± 0.13 in the data set with Saccharomyces cerevisiae [2] (setting [4]); 0.703 ± 0.026 in the data set with Saccharomyces cerevisiae [2] (setting [5]); 0.758 ± 0.043 with Saccharomyces cerevisiae [2] (setting [6]); 0.0896 ± 0.034 with Saccharomyces cerevisiae [2] (setting [7]). Also, the protein stability index stood at 0.092 ± 0.032 with Saccharomyces cerevisiae [2] (setting [8]) and 0.145 ± 0.04 with Saccharomyces cerevisiae [2] (setting [9]).

Take KKIKKYTRKLKI: the protein stability index in the data set with Saccharomyces cerevisiae [1] came out at 0.455 ± 0.048; in the data set on Saccharomyces cerevisiae [2] (setting [3]), 0.707 ± 0.0088; in the data set with Saccharomyces cerevisiae [2] (setting [4]), 0.765 ± 0.014; in the data set on Saccharomyces cerevisiae [2] (setting [5]) it was 0.673 ± 0.05; with Saccharomyces cerevisiae [2] (setting [6]), 0.719 ± 0.053; with Saccharomyces cerevisiae [2] (setting [7]), 0.323 ± 0.014. Further, the protein stability index in the data set with Saccharomyces cerevisiae [2] (setting [8]) was 0.383 ± 0.02; with Saccharomyces cerevisiae [2] (setting [9]), 0.63 ± 0.0069.

Consider KKKKRVKIQKKN, for which the protein stability index in the data set with Saccharomyces cerevisiae [1] amounted to 0.404 ± 0.03; in the data set with Saccharomyces cerevisiae [2] (setting [3]), 0.628 ± 0.059; in the data set on Saccharomyces cerevisiae [2] (setting [4]) it was 0.707 ± 0.052; in the data set on Saccharomyces cerevisiae [2] (setting [5]), 0.683 ± 0.041; in the data set with Saccharomyces cerevisiae [2] (setting [6]), 0.689 ± 0.041; with Saccharomyces cerevisiae [2] (setting [7]), 0.259 ± 0.04. Also, the protein stability index in the data set with Saccharomyces cerevisiae [2] (setting [8]) came out at 0.244 ± 0.061; in the data set with Saccharomyces cerevisiae [2] (setting [9]), 0.446 ± 0.009.

For KKNLTHSIRVQA, the protein stability index stood at 0.505 ± 0.025 with Saccharomyces cerevisiae [1]; 0.62 ± 0.028 in the data set with Saccharomyces cerevisiae [2] (setting [3]); 0.717 ± 0.0094 with Saccharomyces cerevisiae [2] (setting [4]); 0.567 ± 0.033 in the data set with Saccharomyces cerevisiae [2] (setting [5]); 0.696 ± 0.011 in the data set on Saccharomyces cerevisiae [2] (setting [6]); 0.352 ± 0.017 with Saccharomyces cerevisiae [2] (setting [7]). Further, the protein stability index turned out to be 0.377 ± 0.021 with Saccharomyces cerevisiae [2] (setting [8]) and 0.585 ± 0.015 in the data set with Saccharomyces cerevisiae [2] (setting [9]).

On to KMKGLINKRKES, for which the protein stability index was found to be 0.219 ± 0.0027 in the data set on Saccharomyces cerevisiae [1]; 0.533 ± 0.05 in the data set with Saccharomyces cerevisiae [2] (setting [3]); 0.657 ± 0.01 with Saccharomyces cerevisiae [2] (setting [4]); 0.655 ± 0.037 in the data set with Saccharomyces cerevisiae [2] (setting [5]); 0.68 ± 0.015 with Saccharomyces cerevisiae [2] (setting [6]); 0.146 ± 0.0029 in the data set with Saccharomyces cerevisiae [2] (setting [7]). In addition, the protein stability index with Saccharomyces cerevisiae [2] (setting [8]) turned out to be 0.12 ± 0.05; with Saccharomyces cerevisiae [2] (setting [9]), 0.233 ± 0.027.

Regarding KNVFLIRGRKNC, the protein stability index in the data set with Saccharomyces cerevisiae [1] came out at 0.356 ± 0.098; in the data set with Saccharomyces cerevisiae [2] (setting [3]), 0.627 ± 0.054; in the data set on Saccharomyces cerevisiae [2] (setting [4]), 0.689 ± 0.0093; in the data set with Saccharomyces cerevisiae [2] (setting [5]) it was 0.638 ± 0.029; in the data set with Saccharomyces cerevisiae [2] (setting [6]), 0.721 ± 0.018; in the data set on Saccharomyces cerevisiae [2] (setting [7]) it was 0.154 ± 0.021. In addition, the protein stability index was found to be 0.193 ± 0.014 in the data set on Saccharomyces cerevisiae [2] (setting [8]) and 0.41 ± 0.017 in the data set on Saccharomyces cerevisiae [2] (setting [9]).

As for KSRLFCFVYFLL, the protein stability index in the data set with Saccharomyces cerevisiae [1] came to 0.167 ± 0.013; in the data set on Saccharomyces cerevisiae [2] (setting [3]) it was 0.333 ± 0.011; in the data set on Saccharomyces cerevisiae [2] (setting [4]), 0.413 ± 0.013; with Saccharomyces cerevisiae [2] (setting [5]), 0.311 ± 0.032; with Saccharomyces cerevisiae [2] (setting [6]), 0.501 ± 0.007; in the data set on Saccharomyces cerevisiae [2] (setting [7]), 0.137 ± 0.0024. Moreover, the protein stability index was determined as 0.141 ± 0.02 with Saccharomyces cerevisiae [2] (setting [8]) and 0.17 ± 0.0063 with Saccharomyces cerevisiae [2] (setting [9]).

As for KTDVYPVSFFTC, the protein stability index in the data set on Saccharomyces cerevisiae [1] was 0.184 ± 0.028; in the data set with Saccharomyces cerevisiae [2] (setting [3]), 0.532 ± 0.013; in the data set with Saccharomyces cerevisiae [2] (setting [4]), 0.738 ± 0.0099; in the data set with Saccharomyces cerevisiae [2] (setting [5]), 0.645 ± 0.043; with Saccharomyces cerevisiae [2] (setting [6]) it was 0.711 ± 0.055; in the data set on Saccharomyces cerevisiae [2] (setting [7]) it was 0.0924 ± 0.019. In addition, the results for the protein stability index in the data set with Saccharomyces cerevisiae [2] (setting [8]) and in the data set on Saccharomyces cerevisiae [2] (setting [9]) were 0.0951 ± 0.026 and 0.133 ± 0.013, respectively.

On to KVLLYWRHAQRQ, for which the protein stability index in the data set with Saccharomyces cerevisiae [1] was 0.548 ± 0.11; in the data set on Saccharomyces cerevisiae [2] (setting [3]) it was 0.652 ± 0.052; in the data set on Saccharomyces cerevisiae [2] (setting [4]), 0.6916 ± 0.006; in the data set on Saccharomyces cerevisiae [2] (setting [5]) it was 0.654 ± 0.019; with Saccharomyces cerevisiae [2] (setting [6]), 0.733 ± 0.01; in the data set with Saccharomyces cerevisiae [2] (setting [7]) it was 0.387 ± 0.0069. Moreover, the protein stability index worked out at 0.44 ± 0.0086 in the data set with Saccharomyces cerevisiae [2] (setting [8]) and 0.611 ± 0.013 in the data set on Saccharomyces cerevisiae [2] (setting [9]).

Take KYKLYGIMIIEG: the protein stability index in the data set on Saccharomyces cerevisiae [1] worked out at 0.329 ± 0.078; with Saccharomyces cerevisiae [2] (setting [3]), 0.39 ± 0.066; with Saccharomyces cerevisiae [2] (setting [4]) it was 0.464 ± 0.016; in the data set on Saccharomyces cerevisiae [2] (setting [5]) it was 0.283 ± 0.039; in the data set on Saccharomyces cerevisiae [2] (setting [6]), 0.472 ± 0.026; in the data set with Saccharomyces cerevisiae [2] (setting [7]), 0.258 ± 0.012. For the same sequence, the protein stability index amounted to 0.262 ± 0.013 in the data set with Saccharomyces cerevisiae [2] (setting [8]) and 0.462 ± 0.04 in the data set on Saccharomyces cerevisiae [2] (setting [9]).

With LAGLVRFWGCVG, the protein stability index with Saccharomyces cerevisiae [1] is 0.341 ± 0.0037; in the data set with Saccharomyces cerevisiae [2] (setting [3]), 0.622 ± 0.022; with Saccharomyces cerevisiae [2] (setting [4]), 0.7111 ± 0.0023; with Saccharomyces cerevisiae [2] (setting [5]) it was 0.656 ± 0.015; in the data set with Saccharomyces cerevisiae [2] (setting [6]), 0.748 ± 0.019; with Saccharomyces cerevisiae [2] (setting [7]), 0.122 ± 0.019. Besides, the protein stability index is 0.141 ± 0.03 in the data set with Saccharomyces cerevisiae [2] (setting [8]) and 0.236 ± 0.0026 in the data set with Saccharomyces cerevisiae [2] (setting [9]).

For the sequence LASSCYRHLLVV, the protein stability index in the data set with Saccharomyces cerevisiae [1] turned out to be 0.137 ± 0.002; in the data set on Saccharomyces cerevisiae [2] (setting [3]), 0.242 ± 0.0047; with Saccharomyces cerevisiae [2] (setting [4]), 0.323 ± 0.0065; with Saccharomyces cerevisiae [2] (setting [5]) it was 0.289 ± 0.029; with Saccharomyces cerevisiae [2] (setting [6]), 0.4343 ± 0.0036; with Saccharomyces cerevisiae [2] (setting [7]), 0.0628 ± 0.016. Further, the protein stability index with Saccharomyces cerevisiae [2] (setting [8]) was found to be 0.0775 ± 0.017; in the data set with Saccharomyces cerevisiae [2] (setting [9]), 0.078 ± 0.044.

As for LCCTLFFCYSYH, the protein stability index came out at 0.424 ± 0.013 in the data set on Saccharomyces cerevisiae [1]; 0.569 ± 0.032 with Saccharomyces cerevisiae [2] (setting [3]); 0.547 ± 0.064 with Saccharomyces cerevisiae [2] (setting [4]); 0.418 ± 0.017 with Saccharomyces cerevisiae [2] (setting [5]); 0.554 ± 0.038 in the data set with Saccharomyces cerevisiae [2] (setting [6]); 0.374 ± 0.0053 with Saccharomyces cerevisiae [2] (setting [7]). In addition, the protein stability index in the data set with Saccharomyces cerevisiae [2] (setting [8]) came out at 0.388 ± 0.019; in the data set on Saccharomyces cerevisiae [2] (setting [9]), 0.617 ± 0.098.
